Laboratory results reported in US20220323619A1 (TELIX INTERNATIONAL, published 2022).

Columns and labels:
[1] = target: T1, human FcγRI (Sino Biological, His-tagged) (human, UniProt P12314 16-288, limits assumed); test: Biacore single cycle, His-tagged receptor captured on anti-His CM5 chip, antibody analyte; 1:1 kinetics
T1 construct: Bought product; also called FcgRI; not shown: His tag

[2] = target: T2, human FcγRIIIa 176V (Sino Biological, His-tagged) (human, UniProt P08637 17-208); test: Biacore single cycle, His-tagged receptor captured on anti-His CM5 chip, antibody analyte; steady state
T2 construct: not shown: His tag
T2 sequence (P08637 17-208 F176V limits assumed): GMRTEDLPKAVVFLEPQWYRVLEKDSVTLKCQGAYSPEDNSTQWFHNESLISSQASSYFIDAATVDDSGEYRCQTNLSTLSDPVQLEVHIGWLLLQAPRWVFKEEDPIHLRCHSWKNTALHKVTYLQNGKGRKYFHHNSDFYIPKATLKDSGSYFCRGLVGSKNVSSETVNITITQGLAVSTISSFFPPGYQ

[3] = target: T3, human FcγRIIa 167H (Sino Biological, His-tagged) (human, UniProt P12318 34-218, limits assumed); test: as above
T3 construct: not shown: His tag
T3 sequence (looked up): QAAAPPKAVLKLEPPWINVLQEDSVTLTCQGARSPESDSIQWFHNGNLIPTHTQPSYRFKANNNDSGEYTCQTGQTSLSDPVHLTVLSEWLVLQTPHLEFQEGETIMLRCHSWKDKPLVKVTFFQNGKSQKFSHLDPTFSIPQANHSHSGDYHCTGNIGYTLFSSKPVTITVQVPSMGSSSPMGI

[4] = target: T4, human FcγRIIa 167R (Sino Biological, His-tagged) (human, UniProt P12318 34-218, limits assumed); test: as above
T4 construct: not shown: His tag
T4 sequence (looked up): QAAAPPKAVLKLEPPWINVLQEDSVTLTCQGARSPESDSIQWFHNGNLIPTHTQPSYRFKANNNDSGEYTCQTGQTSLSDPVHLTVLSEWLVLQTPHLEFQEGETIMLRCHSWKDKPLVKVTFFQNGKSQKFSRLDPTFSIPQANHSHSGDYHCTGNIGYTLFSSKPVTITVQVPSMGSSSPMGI

[5] = target: T5, human FcγRIIb (Sino Biological, His-tagged) (human, UniProt P31994 43-217, limits assumed); test: as above
T5 construct: not shown: His tag
T5 sequence (looked up): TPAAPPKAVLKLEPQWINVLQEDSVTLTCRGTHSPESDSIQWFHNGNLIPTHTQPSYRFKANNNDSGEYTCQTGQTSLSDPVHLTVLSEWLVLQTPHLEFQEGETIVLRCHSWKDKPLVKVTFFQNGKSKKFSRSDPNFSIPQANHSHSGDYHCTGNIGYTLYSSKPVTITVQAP

[6] = target: T6, human FcγRIIIb (Sino Biological, His-tagged) (human, UniProt O75015 17-200, limits assumed); test: as above
T6 construct: not shown: His tag
T6 sequence (O75015 17-200 limits assumed): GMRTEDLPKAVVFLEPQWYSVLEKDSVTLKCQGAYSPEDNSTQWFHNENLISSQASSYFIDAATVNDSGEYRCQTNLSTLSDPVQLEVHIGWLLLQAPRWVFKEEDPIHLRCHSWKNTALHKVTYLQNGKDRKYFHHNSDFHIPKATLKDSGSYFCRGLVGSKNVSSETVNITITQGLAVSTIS

[7] = target: T7, human FcγRIIIa 176F (Sino Biological, His-tagged) (human, UniProt P08637 17-208); test: as above
T7 construct: not shown: His tag
T7 sequence (P08637 17-208 limits assumed): as the sequence (P08637 17-208 F176V limits assumed) above, with V160F counted along it

[8] = target: T8, prostate-specific membrane antigen (PSMA) (R&D Systems) (UniProt Q04609 44-750); test: Biacore multi-cycle kinetics, antibody captured on Protein G chip, PSMA analyte 1.5625-25 nM
T8 construct: Soluble analyte in the Biacore assay
T8 sequence (Q04609 44-750 limits assumed): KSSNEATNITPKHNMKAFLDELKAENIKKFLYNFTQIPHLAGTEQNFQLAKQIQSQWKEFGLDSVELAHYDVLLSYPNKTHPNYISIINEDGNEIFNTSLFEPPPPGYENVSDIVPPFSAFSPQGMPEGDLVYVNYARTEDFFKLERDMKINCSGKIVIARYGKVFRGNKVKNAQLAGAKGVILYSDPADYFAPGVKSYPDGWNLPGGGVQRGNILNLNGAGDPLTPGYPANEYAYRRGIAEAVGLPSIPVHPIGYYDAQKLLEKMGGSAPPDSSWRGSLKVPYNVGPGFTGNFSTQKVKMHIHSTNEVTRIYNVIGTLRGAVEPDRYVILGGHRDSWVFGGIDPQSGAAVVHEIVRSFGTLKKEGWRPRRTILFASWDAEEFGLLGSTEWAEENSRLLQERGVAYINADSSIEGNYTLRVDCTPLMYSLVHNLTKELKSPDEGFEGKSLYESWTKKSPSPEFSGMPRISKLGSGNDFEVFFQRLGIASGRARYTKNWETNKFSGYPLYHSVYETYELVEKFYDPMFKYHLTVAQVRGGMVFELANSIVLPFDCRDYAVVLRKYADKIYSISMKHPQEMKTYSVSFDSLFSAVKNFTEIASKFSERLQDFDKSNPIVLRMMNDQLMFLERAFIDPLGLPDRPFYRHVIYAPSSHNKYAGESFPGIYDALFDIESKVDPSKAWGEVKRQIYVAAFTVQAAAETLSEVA

Measured: binding result

T1 sequence (P12314 16-288 limits assumed): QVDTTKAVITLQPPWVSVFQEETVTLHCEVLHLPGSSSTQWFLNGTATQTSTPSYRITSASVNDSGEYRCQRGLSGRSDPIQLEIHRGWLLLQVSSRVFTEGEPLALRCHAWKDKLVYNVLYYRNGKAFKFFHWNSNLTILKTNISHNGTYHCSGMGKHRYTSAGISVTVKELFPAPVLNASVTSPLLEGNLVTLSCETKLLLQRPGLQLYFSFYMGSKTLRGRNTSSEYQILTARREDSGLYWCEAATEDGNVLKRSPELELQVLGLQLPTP

B1: ANT4044 IgG1 (H310A, H435Q) (antibody)
heavy: not shown
light: DIQMTQSPSTLSASVGDRVTITCKASQDVGTAVDWYQQKPGQAPKLLIYWASTRHTGVPDRFSGSGSGTDFTLTISRLQPEDFAVYYCQQYNSYPLTFGQGTKVDIKRTVAAPSVFIFPPSDEQLKSGTASVVCLLNNFYPREAKVQWKVDNALQSGNSQESVTEQDSKDSTYSLSSTLTLSKADYEKHKVYACEVTHQGLSSPVTKSFNRGEC
notes: also called ANT4044-IgG1-2M; ANT4044-FcRn
binds: [1] | [2] | [3] | [4] | [5] | [6] | [7]

B2: ANT4044-A2 IgG4 (S228P, L235E, H310A, H435Q) (antibody)
heavy: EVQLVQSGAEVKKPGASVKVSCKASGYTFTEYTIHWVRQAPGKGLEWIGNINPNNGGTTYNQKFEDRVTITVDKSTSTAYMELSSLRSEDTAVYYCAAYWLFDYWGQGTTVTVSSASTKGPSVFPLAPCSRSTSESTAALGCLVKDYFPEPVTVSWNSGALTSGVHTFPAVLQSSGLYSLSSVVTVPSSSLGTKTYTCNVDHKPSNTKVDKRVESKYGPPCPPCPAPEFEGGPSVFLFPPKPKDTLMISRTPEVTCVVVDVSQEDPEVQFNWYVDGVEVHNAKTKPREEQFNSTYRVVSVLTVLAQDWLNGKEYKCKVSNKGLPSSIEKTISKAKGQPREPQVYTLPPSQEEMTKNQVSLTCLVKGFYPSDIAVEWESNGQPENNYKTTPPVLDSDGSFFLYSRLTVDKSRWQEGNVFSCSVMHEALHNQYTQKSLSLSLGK
light: DIQMTQSPSTLSASVGDRVTITCKASQDVGTAVDWYQQKPGQAPKLLIYWASTRHTGVPDRFSGSGSGTDFTLTISRLQPEDFAVYYCQQYNSYPLTFGQGTKVDIKRTVAAPSVFIFPPSDEQLKSGTASVVCLLNNFYPREAKVQWKVDNALQSGNSQESVTEQDSKDSTYSLSSTLTLSKADYEKHKVYACEVTHQGLSSPVTKSFNRGEC
notes: also called ANT4044-A2 RADmAb IgG4
binds: [8]

B3: ANT4044-A2 IgG1 (H310A, H435Q) (antibody)
heavy: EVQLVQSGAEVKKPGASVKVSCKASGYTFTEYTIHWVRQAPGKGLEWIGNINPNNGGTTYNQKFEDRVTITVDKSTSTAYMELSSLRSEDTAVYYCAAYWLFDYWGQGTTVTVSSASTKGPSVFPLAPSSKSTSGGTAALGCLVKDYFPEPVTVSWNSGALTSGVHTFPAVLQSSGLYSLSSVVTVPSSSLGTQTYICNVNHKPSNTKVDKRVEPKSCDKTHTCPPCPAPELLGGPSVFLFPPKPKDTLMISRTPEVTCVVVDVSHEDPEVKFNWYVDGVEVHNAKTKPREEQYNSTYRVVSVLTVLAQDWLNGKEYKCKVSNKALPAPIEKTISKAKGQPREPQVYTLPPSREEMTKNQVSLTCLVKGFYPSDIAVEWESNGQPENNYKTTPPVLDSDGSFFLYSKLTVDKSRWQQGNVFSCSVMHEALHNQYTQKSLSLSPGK
light: DIQMTQSPSTLSASVGDRVTITCKASQDVGTAVDWYQQKPGQAPKLLIYWASTRHTGVPDRFSGSGSGTDFTLTISRLQPEDFAVYYCQQYNSYPLTFGQGTKVDIKRTVAAPSVFIFPPSDEQLKSGTASVVCLLNNFYPREAKVQWKVDNALQSGNSQESVTEQDSKDSTYSLSSTLTLSKADYEKHKVYACEVTHQGLSSPVTKSFNRGEC
notes: also called ANT4044-A2 RADmAb IgG1
binds: [1] | [2] | [3] | [4] | [5] | [6] | [7] | [8]

B4: ANT4044-A2 IgG1 (antibody)
heavy: not shown
light: DIQMTQSPSTLSASVGDRVTITCKASQDVGTAVDWYQQKPGQAPKLLIYWASTRHTGVPDRFSGSGSGTDFTLTISRLQPEDFAVYYCQQYNSYPLTFGQGTKVDIKRTVAAPSVFIFPPSDEQLKSGTASVVCLLNNFYPREAKVQWKVDNALQSGNSQESVTEQDSKDSTYSLSSTLTLSKADYEKHKVYACEVTHQGLSSPVTKSFNRGEC
notes: also called ANT4044-A2 expressed as unmodified IgG1
binds: [8]
